From IntAct's records for PubMed 15147268

B1: Suppressor of kinetochore protein 1 (Schizosaccharomyces pombe (strain ATCC 38366 / 972)), Q9Y709 (parent)
chain: MSKIKLISSDNEEFVVDQLIAERSMLIKNMLEDVGEINVPIPLPNVSSNVLRKVLEWCEHHKNDLYSGTEEESDIRLKKSTDIDEWDRKFMAVDQEMLFEIVLASNYLDIKPLLDTGCKTVANMIRGKSPEDIRKTFNIPNDFTPEEEEQIRKENEWAEDR
partner: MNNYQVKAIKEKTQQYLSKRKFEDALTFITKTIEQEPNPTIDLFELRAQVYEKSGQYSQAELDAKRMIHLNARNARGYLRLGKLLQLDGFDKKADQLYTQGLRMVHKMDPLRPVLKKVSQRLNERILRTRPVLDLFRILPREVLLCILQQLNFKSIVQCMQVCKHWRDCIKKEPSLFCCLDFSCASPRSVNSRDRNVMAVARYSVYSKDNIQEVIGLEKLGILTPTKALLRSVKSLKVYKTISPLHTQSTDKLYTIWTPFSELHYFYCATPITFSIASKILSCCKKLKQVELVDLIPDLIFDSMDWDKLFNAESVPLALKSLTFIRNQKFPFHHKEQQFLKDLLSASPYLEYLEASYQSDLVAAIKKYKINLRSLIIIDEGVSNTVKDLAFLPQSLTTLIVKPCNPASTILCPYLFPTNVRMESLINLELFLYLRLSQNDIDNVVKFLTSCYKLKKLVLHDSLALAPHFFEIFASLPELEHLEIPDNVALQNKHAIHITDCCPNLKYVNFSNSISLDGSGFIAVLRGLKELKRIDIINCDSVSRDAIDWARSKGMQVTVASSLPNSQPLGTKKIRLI
B2: Suppressor of kinetochore protein 1 (Schizosaccharomyces pombe (strain ATCC 38366 / 972)), Q9Y709 (parent)
chain: B1 chain
partner: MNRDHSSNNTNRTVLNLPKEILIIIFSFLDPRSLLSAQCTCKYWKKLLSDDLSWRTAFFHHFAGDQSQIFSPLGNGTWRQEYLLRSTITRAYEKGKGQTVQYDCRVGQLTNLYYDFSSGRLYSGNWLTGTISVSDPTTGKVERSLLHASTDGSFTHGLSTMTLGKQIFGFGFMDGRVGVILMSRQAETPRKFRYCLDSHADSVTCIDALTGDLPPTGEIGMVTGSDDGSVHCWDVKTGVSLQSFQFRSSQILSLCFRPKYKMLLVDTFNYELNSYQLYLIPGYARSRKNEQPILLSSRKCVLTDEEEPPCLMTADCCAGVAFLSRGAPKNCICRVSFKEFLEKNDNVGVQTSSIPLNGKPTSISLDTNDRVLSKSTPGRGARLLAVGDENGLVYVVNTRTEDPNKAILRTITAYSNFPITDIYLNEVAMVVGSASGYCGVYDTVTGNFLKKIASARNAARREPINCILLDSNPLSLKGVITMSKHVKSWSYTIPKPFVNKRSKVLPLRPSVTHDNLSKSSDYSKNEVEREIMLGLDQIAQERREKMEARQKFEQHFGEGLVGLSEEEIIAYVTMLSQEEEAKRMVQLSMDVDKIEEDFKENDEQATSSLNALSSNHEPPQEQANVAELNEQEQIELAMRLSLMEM
B3: Suppressor of kinetochore protein 1 (Schizosaccharomyces pombe (strain ATCC 38366 / 972)), Q9Y709 (parent)
chain: B1 chain
partner: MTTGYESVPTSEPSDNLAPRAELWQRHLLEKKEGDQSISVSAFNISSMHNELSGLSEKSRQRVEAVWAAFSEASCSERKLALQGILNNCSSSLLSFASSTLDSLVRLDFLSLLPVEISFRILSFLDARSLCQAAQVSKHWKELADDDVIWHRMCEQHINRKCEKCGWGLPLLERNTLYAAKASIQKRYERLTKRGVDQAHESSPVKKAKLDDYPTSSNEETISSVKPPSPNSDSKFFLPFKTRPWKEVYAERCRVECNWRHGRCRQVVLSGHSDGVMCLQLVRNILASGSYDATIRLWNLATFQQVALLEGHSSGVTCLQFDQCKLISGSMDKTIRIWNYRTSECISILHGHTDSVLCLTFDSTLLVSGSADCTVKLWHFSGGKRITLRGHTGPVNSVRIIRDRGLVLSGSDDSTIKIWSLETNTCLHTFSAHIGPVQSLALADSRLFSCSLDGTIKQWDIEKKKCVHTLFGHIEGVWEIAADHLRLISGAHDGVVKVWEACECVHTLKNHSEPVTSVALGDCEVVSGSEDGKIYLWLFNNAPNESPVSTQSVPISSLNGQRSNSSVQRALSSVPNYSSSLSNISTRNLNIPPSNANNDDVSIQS

Variants of: B1
Details: with pof3_schpo pof3, O74991

Row | effect of a mutation on the interaction | Variant
1 | decreasing interaction | MSKIKLISSDNEEFVVDQLIAERSMLIKNMLEDVGEINVPIPLPNVSSNVLRKVLEWCEHHKNDLYSGTEEESDIRLKKSTDIDEWDRKFMAVDQEMLFEIVLASNYLDTKPLLDTGCKTVANMIRGKSPEDIRKTFNIPNDFTPEEEEQIRKENEWAEDR [I110T]

Variants of: B2
Details: with pof10_schpo pof10, Q9P7W4

Row | effect of a mutation on the interaction | Variant
2 | decreasing interaction | MSKIKLISSDNEEFVVDQLIAERSMLIKNMLEDVGEINVPIPLPNVSSNVLRKVLEWCEHHKNDLYSGTEEESDIRLKKSTDIDEWDRKFMAVDQEMLFEIVLASNYLDTKPLLDTGCKTVANMIRGKSPEDIRKTFNIPNDFTPEEEEQIRKENEWAEDR [I110T]

Variants of: B3
Details: with pof1_schpo pof1, P87053

Row | effect of a mutation on the interaction | Variant
3 | decreasing interaction | MSKIKLISSDNEEFVVDQLIAERSMLIKNMLEDVGEINVPIPLPNVSSNVLRKVLEWCEHHKNDLYSGTEEESDIRLKKSTDIDEWDRKFMAVDQEMLFEIVLASNYLDTKPLLDTGCKTVANMIRGKSPEDIRKTFNIPNDFTPEEEEQIRKENEWAEDR [I110T]
